Experiments:
[1] = target: 人甲胎蛋白(human alpha fetoprotein，hAFP) (human) (UniProt P02771); test: ELISA titre of ascites antibody on hAFP
[2] = target: T1, 人血清白蛋白(human serum albumin，HSA) (human, UniProt P02768 25-609); test: indirect ELISA, HSA as cross-reaction antigen
T1 construct: Used at 40 mg/ml as the cross-reaction antigen; also called HAS
T1 sequence (P02768 25-609): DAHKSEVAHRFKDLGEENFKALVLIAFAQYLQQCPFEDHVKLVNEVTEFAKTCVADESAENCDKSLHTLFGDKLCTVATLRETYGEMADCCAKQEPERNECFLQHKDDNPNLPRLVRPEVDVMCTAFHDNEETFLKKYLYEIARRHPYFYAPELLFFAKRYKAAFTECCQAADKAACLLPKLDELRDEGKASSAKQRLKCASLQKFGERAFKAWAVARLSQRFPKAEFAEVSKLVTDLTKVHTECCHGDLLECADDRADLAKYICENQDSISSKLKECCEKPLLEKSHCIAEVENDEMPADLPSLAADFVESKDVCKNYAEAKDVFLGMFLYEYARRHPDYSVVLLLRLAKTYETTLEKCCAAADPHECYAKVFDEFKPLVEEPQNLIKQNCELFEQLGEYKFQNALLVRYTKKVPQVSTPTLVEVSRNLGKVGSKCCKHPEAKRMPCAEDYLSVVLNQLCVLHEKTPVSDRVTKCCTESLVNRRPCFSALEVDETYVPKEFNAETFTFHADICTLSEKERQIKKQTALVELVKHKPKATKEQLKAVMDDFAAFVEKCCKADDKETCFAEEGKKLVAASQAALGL

UniProt P02771, sequence (P02771 19-609): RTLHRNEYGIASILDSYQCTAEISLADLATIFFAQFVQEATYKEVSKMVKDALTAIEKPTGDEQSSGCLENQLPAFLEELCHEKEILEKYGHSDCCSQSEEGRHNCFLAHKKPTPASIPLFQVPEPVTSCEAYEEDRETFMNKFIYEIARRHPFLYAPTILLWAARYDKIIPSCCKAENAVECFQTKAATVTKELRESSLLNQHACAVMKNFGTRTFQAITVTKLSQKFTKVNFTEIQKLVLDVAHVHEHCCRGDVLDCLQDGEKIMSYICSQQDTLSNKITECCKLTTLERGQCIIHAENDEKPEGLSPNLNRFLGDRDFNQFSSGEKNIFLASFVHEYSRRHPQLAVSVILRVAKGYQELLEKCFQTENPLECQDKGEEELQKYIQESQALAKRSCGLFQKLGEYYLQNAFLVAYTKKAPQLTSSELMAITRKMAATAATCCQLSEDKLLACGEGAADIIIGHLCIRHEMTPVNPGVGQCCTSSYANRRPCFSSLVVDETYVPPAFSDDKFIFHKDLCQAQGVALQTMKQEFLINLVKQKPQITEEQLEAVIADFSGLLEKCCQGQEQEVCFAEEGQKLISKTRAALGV

腹水效价 [1]	binding result [2]	Binder
< 3e+07		单克隆抗体Ab4 (antibody, part only; not given: light chain variable region, constant regions, V domains shown, part only) VH: VKLQQSGPELVKPGASVTLSCKASGYTFTSYYIHWVKQRPGQELEWIGWIYPGNVNTKYNEKFKGKATLTADKSSSTAYMQLSSLTSEDSAVYFCARCSGRLYYAMDYWGQGTTVTVSS
	no binding (tested: 40mg/ml)	单克隆抗体Ab3 (antibody, V domains shown, Mouse monoclonal IgG from hybridoma ascites, Protein G purified; HRP-labelled in the immunohistochemistry; also called Ab3-HRP) VH: VKLQESGAELVKPGASVKLSCTASGFNIKDTYMHWVKQRPEQGLEWIGGIDPANGKTKFDPKFQGKATITADTSSNTAYLHLSRLTSDDTAVYYCVRGQVGGRGWFAYWGQGTTVTVSS VL: DIQLTQSPSSLSASLGERVSLTCRASQEISGYLSWLQRKPDGTIKRLIYAASTLDSGVPKRFSGSRSGSDYSLTISSLESEDFADYYCLQYASYPYTFGGGTKL

Source: patent CN107022030A (GUANGDONG GUYING BIOTECHNOLOGY INDUSTRIAL RES INSTITUTE CO …, dated 2017)
